The values below come from patent publication US6667173B2, “Nucleic acids encoding platelet derived growth factor-alpha receptors” (The Schepens Eye Research Institute, priority 2000, dated 2003).

Series [1] concerns GST-PLCγ. The series is described as follows: In vitro kinase assay of immunoprecipitated mutant αPDGFRs with exogenous substrate. Format: biochemical. Particulars: 292 immunoprecipitates, [32P]-γ ATP, 30° C., 5 min. Here is the method:
Mutant αPDGFRs were selectively immunoprecipitated with the 292 antibody, and samples representing 2×10^5 cells from 292 antibodies were subjected to an in vitro kinase assay. Immunoprecipitates were preincubated with 2 μg of GST protein for 10 min at 0° C., then 2 μg of Glutathione S-transferase fusion phospholipase C-gamma (GST-PLCγ, an exogenous substrate, 10 μCi of γ-[^32P] ATP (DuPont NEN Research Products, Boston, Mass.), and universal kinase buffer (UKB; 20 mM Pipes, pH 7.0, 10 mM MnCl2, 20 μg/ml aprotinin) were added. The samples were incubated at 30° C. for 5 min. The proteins were separated by 7.5% sodium dodecyl sulfate-polyacrylamide gel electrophoresis (SDS-PAGE), the gel was dried, and the radiolabeled protein was detected by autoradiography.

The subject of series [2] is NIH 3T3 cells. As to the kind of experiment: [3H]-thymidine incorporation (entry into S phase) in NIH 3T3 cells expressing mutant receptors. It is filed as cell-based, mouse. Particulars: 10% FBS, 22 hours. Here is the method: NIH 3T3 cells expressing either empty vector (EMP) or one of the αPDGFR mutants were trypsinized, resuspended in DMEM with 10% FBS, and plated at a density of 5×10^5 cells/well in 24-well tissue culture plates and cultured overnight. The cells were rinsed twice with phosphate buffered saline (PBS), and serum starved by incubation in 0.5 ml of DMEM with 0.1% FBS and 0.4 mg/ml of bovine serum albumin (BSA; Sigma) for 48 hours. The cells were then exposed to 50 ng/ml of PDGF-AA, 10% Fetal bovine serum (FBS) (v/v), or buffer for 22 hours. The cells were then pulsed for 4 hours in DMEM with 10% FBS containing 0.8 μCi/ml of [^3H]-thymidine (DuPont NEN Research Products). Finally, the cells were washed twice with PBS, and once with 5% trichloro acetic acid, and lysed in 250 μl of 0.25 N NaOH. The lysates were transferred into scintillation tubes containing 50 μl of 6 N HCl, and then 3 ml of scintillation fluid (ICN) was added. The incorporated radioactivity of [^3H]-thymidine uptake was quantitated in a scintillation counter (Packard, Meriden Conn.). The data were expressed as fold induction, which was calculated by dividing stimulated samples by the buffer control. Each condition was assayed triplicate, and the mean±standard deviation (SD) was obtained.

Series [3] deals with FCX^2, Fα and Fβ cells. As to the kind of experiment: Collagen gel contraction assay of cells with no PDGFRs, αPDGFR or βPDGFR. It is filed as cell-based, mouse. The conditions noted are these: 1 ng/ml TGFβ1; 24, 48, 72 hours. Here is the method: The contraction assay was based on a previously described reference, Skuta, G. et al. (1999) J. Biol. Chem. 274:30163, with the following modifications. Fα cells were suspended in 1.5 mg/ml of neutralized collagen I (Cohesion vitrogen 100, Palo Alto, Calif.) at a density of 10^6 cells/ml, and were transferred into the 24-well plate (Falcon, Franklyn Lakes, N.J.) that had been preincubated with phosphate-buffer saline (PBS) with 5 mg/ml of bovine serum albumin (BSA) overnight. The gel was solidified by incubating at 37° C. for 90 minutes, and then the well was flooded with DMEM+5 mg/ml of BSA supplemented with an amount of vitreous such that the final concentration of vitreous in the culture medium was 1, 5 or 20%. […] The media was replaced every 24 hours and the gel diameter was measured after 48 hours. The extent of contraction was calculated by subtracting the diameter of the well at 48 hours from the initial diameter (15 mm). […]
The experiments described in Example 9 (FIG. 7B) were repeated with cells that express the βPDGFR (Fβ) instead of the αPDGFR, or no PDGFRs (FCX^2). Contraction was scored at the 48 hours time point. […]
To more directly test whether TGFβ could moderate contraction of fibroblasts via the αPDGFR, the response of the three cell lines to purified TGFβ was examined. […] The gel diameter was measured after 24, 48, or 72 hours, and the media was replaced every day.

The target in series [4] is T1, αPDGFR (Homo sapiens, UniProt P16234).
T1 construct: expressed in transfected cells; host or cells: F cells (SV-40 immortalized mouse embryo fibroblasts lacking both PDGFRs), giving Fα
T1 sequence (P16234 24-1089): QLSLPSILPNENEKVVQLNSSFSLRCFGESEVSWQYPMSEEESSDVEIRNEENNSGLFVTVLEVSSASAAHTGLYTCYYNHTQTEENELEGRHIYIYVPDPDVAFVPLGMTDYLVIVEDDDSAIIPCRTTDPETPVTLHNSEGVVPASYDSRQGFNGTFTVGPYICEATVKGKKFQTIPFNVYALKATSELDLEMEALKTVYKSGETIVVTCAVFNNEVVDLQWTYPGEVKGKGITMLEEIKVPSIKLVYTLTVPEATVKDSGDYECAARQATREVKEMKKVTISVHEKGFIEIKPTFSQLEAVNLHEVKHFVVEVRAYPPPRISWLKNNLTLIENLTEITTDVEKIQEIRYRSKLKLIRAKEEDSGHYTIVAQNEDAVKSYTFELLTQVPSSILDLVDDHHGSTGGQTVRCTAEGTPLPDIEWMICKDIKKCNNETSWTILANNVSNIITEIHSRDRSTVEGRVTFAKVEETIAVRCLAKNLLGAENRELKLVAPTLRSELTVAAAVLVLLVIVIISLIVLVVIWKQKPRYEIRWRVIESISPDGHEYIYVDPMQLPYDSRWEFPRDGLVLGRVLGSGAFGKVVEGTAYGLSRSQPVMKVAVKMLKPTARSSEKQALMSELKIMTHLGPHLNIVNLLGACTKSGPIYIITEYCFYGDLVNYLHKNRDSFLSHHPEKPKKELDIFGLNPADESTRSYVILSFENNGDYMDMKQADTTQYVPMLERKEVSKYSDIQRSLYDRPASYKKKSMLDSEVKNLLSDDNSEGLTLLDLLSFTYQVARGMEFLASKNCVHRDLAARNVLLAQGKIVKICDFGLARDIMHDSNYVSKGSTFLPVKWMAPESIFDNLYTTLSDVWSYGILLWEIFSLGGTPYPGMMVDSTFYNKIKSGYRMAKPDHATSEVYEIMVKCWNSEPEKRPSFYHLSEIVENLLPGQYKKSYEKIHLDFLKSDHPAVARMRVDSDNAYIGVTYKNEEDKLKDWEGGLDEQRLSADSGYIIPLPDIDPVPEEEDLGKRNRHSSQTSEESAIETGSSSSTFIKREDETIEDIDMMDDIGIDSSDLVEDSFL
The series is described as follows: Tyrosine phosphorylation of the αPDGFR in TGFβ- or PDGF-treated F cells. Format: cell-based. The conditions noted are these: Fα cells; 50 ng/ml PDGF-BB 5 minutes or 1 ng/ml TGFβ1 5 minutes to 8 hours. Here is the method:
To show the effect of TGFβ on αPDGFR, the tyrosine phosphorylation state of the αPDGFR was assayed in TGFβ-treated cells. The F cells with or without PDGFR were grown to 80% confluent and then starved with DMEM containing 1% FBS for 20 hours. Cells were exposed at 37° C. for 5 minutes to either 50 ng/ml of PDGF-BB; with 1 ng/ml of TGFβ1 for 5 minutes, 1 hour, 2 hours, 4 hours, 6 hours or 8 hours; or were left unstimulated. After treatment the cells were washed twice with H/S (20 mM Hepes, pH 7.4, 150 mM NaCl) and then lysed in EB (10 mM Tris-HCl, pH 7.4, 5 mM EDTA, 50 mM NaCl, 50 mM NaF, 1% Triton-X 100, 0.1% BSA, 20 μg/ml aprotinin, 2 mM Na3VO4, 1 mM phenylmethylsulfonyl fluoride; PMSF). Lysates were centrifuged for 15 minutes at 13,000×g, the pellet was discarded and the soluble fraction was used as the total cell lysate. The protein concentration was measured using protein assay kit (Pierce, Rockfield, Ill.) following the manufacture's instructions.
Receptors were immunoprecipitated from the soluble fraction with the 27P antibody (described above). Immune complex was bound to formalin-fixed membranes of Staphylococcus aureus, spun through an EB sucrose gradient, and washed twice with EB, then with PAN (10 mM Pipes, pH 7.0, 100 mM NaCl, 1% aprotinin)+0.5% Nonidet P-40 (NP-40), and finally with PAN. The samples were resuspended in PAN before using for kinase assay or western blotting. […]

The target of series [5] is T2, βPDGFR (Homo sapiens, UniProt P09619).
T2 construct: expressed in transfected cells; host or cells: F cells (mouse embryo fibroblasts lacking both PDGFRs), giving Fβ
T2 sequence (P09619 33-1106): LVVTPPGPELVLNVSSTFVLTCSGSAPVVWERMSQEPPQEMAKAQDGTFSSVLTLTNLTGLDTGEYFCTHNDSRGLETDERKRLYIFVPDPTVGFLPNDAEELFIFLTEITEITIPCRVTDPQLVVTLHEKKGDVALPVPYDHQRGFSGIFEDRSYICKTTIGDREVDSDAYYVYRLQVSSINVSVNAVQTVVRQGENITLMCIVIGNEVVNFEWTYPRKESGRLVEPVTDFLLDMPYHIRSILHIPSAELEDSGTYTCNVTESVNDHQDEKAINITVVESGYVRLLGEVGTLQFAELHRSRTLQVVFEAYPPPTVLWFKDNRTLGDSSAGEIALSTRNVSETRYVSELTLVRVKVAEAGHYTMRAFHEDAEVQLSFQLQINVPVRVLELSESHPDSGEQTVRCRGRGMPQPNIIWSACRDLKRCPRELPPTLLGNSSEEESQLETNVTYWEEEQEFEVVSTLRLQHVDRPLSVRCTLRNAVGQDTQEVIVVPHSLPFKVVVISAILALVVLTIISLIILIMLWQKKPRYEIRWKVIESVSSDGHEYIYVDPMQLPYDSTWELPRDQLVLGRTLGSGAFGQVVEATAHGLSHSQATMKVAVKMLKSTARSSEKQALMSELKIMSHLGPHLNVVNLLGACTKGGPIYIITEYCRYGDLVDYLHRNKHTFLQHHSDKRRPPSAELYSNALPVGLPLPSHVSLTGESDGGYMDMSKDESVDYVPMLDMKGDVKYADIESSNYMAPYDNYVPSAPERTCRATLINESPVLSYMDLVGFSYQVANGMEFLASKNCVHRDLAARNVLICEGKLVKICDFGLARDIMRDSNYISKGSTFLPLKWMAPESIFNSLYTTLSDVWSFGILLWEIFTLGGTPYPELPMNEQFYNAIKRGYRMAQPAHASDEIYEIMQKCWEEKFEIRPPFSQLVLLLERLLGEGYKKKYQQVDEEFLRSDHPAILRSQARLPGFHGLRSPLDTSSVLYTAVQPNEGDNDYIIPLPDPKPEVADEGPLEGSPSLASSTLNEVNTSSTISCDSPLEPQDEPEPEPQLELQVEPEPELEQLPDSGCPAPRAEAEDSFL
The series is described as follows: Tyrosine phosphorylation of the βPDGFR in TGFβ- or PDGF-treated F cells. Format: cell-based. The conditions noted are these: Fβ cells; 1 ng/ml TGFβ1.

Series [6] concerns Erk. The series is described as follows: PDGF-dependent activation of Erk in NIH 3T3 cells expressing mutant receptors (anti-phospho-Erk western blot). It is filed as cell-based, mouse. Particulars: 50 ng/ml PDGF-AA, 5 minutes. Here is the method:
Cells were stimulated as described in Example 2 and 20 μg of total cell lysate was subjected to western blotting analysis using anti-phospho-Erk or anti-Ras GTP-activating protein antibody as an internal control for the amount of protein. The phospho-extracellular signal related kinase (Erk) rabbit polyclonal antibody was purchased from New England Biolabs (Beverly, Mass.) and used at a dilution of 1:1000.
Background: Immunoblotting shows a protein as a band on a membrane.

Series [7] concerns human αPDGFR. As to the kind of experiment: Tyrosine phosphorylation of the introduced mutant αPDGFR (292 immunoprecipitation from NIH 3T3 cells). Format: cell-based, mouse. Particulars: 292 antibody IP, RIPA lysis; 50 ng/ml PDGF-AA, 5 minutes. An excerpt:
To characterize the kinase activity of the point mutants, these were immunoprecipitated using the 292 monoclonal antibody, which selectively recognizes an extracellular epitope of the introduced receptor and recognizes all of the mutants used in this study. While PDGF-stimulation is expected to dimerize mutant and wild type receptors, lysing cells in RIPA buffer breaks receptor dimers. Kelly, J. D. et al. (1991) J. Biol. Chem. 266:8987. Consequently, 292 immunoprecipitates are not expected to contain co-immunoprecipitating WT receptor. NIH 3T3 cells expressing the empty vector or receptor mutants were left resting, or stimulated with 50 ng/ml of PDGF-AA for 5 minutes, the cells were lysed in RIPA buffer and the resulting samples were subjected to anti-phosphotyrosine and anti-αPDGFR western blot analysis. In this series of experiments, we included the previously described Fα cell line, which is an NIH 3T3-like cell line that express the introduced human αPDGFR. Andrews, A. et al (1999) Invest. Ophthalmol. Vis. Sci. 40:2683. This cell line was included as a positive control, since the WT receptor in NIH 3T3 cells is mouse, and not recognized by the 292 antibody. As expected, the αPDGFR was immunoprecipitated from the Fα cells, but not the NIH 3T3 cells expressing the empty vector, and PDGF stimulation increased the phosphotyrosine content of the receptor (FIG. 3A). […]

human αPDGFR, sequence (P16234 24-589 limits assumed): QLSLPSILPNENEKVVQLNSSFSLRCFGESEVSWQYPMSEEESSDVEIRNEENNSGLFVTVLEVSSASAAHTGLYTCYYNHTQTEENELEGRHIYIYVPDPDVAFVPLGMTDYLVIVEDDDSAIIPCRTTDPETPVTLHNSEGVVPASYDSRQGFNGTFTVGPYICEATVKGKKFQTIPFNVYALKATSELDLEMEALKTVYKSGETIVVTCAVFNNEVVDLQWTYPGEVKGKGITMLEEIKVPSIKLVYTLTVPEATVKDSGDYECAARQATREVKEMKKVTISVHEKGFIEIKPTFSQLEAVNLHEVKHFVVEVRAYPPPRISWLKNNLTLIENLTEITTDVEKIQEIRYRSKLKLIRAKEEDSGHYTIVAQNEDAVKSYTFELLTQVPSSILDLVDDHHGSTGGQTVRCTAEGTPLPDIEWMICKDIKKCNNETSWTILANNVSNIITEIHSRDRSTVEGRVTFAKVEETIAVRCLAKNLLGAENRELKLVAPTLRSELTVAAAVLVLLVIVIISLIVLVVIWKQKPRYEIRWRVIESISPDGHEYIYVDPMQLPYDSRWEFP

In the case of “V859M: human αPDGFR point mutant, valine at position 859 changed to methionine; SEQ ID NO: 10”, the “kinase activity towards exogenous substrate GST-PLCγ” value in series [1] is “more active than the WT receptor”. The “[3H]-thymidine incorporation in response to serum” value in series [2] is listed as “somewhat elevated response to serum”.

As to “TGFβ: recombinant human TGFβ1 purchased from R & D systems”, in series [3], the TGFβ-induced contraction result is “induced contraction of the Fα cells to a much greater extent than either the Fβ cells or the cells that do not express any PDGFR”. Moreover, the “tyrosine phosphorylation of the αPDGFR” value in series [4] is “increased phosphorylation of the αPDGFR”. Further, the “tyrosine phosphorylation of the βPDGFR” value in series [5] is reported as “very modest or undetectable tyrosine phosphorylation”.

With “D818N: human αPDGFR point mutant, aspartic acid at position 818 changed to asparagine; SEQ ID NO: 8”, in series [6], the “PDGF-dependent activation of Erk” value is reported as “failed to fully activated Erk”. The “basal or PDGF-stimulated tyrosine phosphorylation of the mutant receptor” value in series [7] was “no detectable”. The “kinase activity towards exogenous substrate GST-PLCγ” value in series [1] is recorded as “not phosphorylated”.
